One series concerns yeast. As to conditions: Gavira et al., 2013, Metab Eng. 18:25-35; cited from earlier work.
For series [1], the system named is wild-type MATa strain ATCC 28383. Put plainly: Growth-inhibitory effect on yeast, cell viability by plating (CFU). It counts as cell-based, S. cerevisiae. As to conditions: 0.125 g/L, 5 h of exposure, plated on YPD. The procedure:
A 20 mL seed culture of wild-type MATa strain ATCC 28383 was grown in SD-THUL medium (0.67 Bacto yeast nitrogen base without amino acids, 2% glucose, 0.14% yeast synthetic drop-out medium without uracil, tryptophan, histidine and leucine). The culture was grown for 24 h, and 2.5 mL of the culture was used to inoculate 7 equal batches of 50 mL fermentation medium (2% (NH4)2SO4, 2% KH2PO4, 0.1% NaCl, 0.6% MgSO4.7H2O, 0.4% yeast extract, 1 mL mineral solution [FeSO4.7H2O 0.028%, ZnSO4.7H2O 0.029%, CuSO4.5H2O 0.008%, Na2MoO4.2H2O 0.024%, CoCl2.6H2O 0.024%, MnSO4.H2O 0.017%, HCl 1 mL], 0.5 mL 50% glucose, 1.5 mL vitamin solution [biotin 0.001%, Ca-pantothenate 0.012%, inositol 0.06%, pyridoxine-HCl 0.012%, thiamine-HCl 0.012%], and 0.5 mL 10% CaCl2) in 250 mL baffled Ehrlenmeyer flasks.
In 6 flasks, nootkatol or glycosylated nootkatol (nootkatol+1 glucose) were added in final concentrations of 0.06, 0.125, and 0.5 g/L. The 7th flask was used as a control and was not treated with nootkatol or glycosylated nootkatol. The cultures were grown at 28° C. and 170 rpm, and the cell viability was measured after 5 h of exposure by plating 100 μL of 1/1000 dilution of cell culture on yeast extract peptone dextrose (YPD) plates.

A short description of series [2]: In vitro glycosylation of nootkatol by purified UGTs with UDP-glucose, LC-MS. It counts as biochemical. As to conditions: 5 mM nootkatol, 15 mM UDP-glucose, 5 μL purified enzyme, overnight at 30° C. The source says:
UGT85A1 (SEQ ID NO:9, SEQ ID NO:10), UGT76E1 (SEQ ID NO:11, SEQ ID NO:12), UGT73E1 (SEQ ID NO:13, SEQ ID NO:14), UGT73C3 (SEQ ID NO:15, SEQ ID NO:16), and UGT76E12 (SEQ ID NO:17, SEQ ID NO:18) were each cloned into a T7 promoter-based vector comprising a sequence coding for an N-terminal 6×His-tag. The vector backbone was linearized with restriction endonucleases, the UGT genes were amplified by PCR, and the constructs were verified by DNA sequencing.
Competent E. coli expression cells were transformed individually with a UGT-comprising plasmid. A colony from each transformation was inoculated individually in 6 mL NZCYM broth comprising an antibiotic. The pre-culture was incubated overnight at 37° C. and 220 rpm and used to inoculate 100 mL NZYCM broth with an antibiotic at an initial OD600 of 0.2. After growth at 37° C. until an OD600 of 0.6-0.8, the cells were induced for protein expression using 0.2 mM IPTG, followed by incubation at 20° C. and 120 rpm for 18-20 h.
Cells were harvested by centrifugation at approximately 4° C. and approximately 4000 g for 20 min and resuspended in 3 mL 10 mM Tris-HCl, pH 8.0 plus protease inhibitor. After cell disruption, 6 mL 1×HIS binding buffer (20 mM Tris-HCl, pH 7.5, 500 mM NaCl, and 10 mM imidazole) were added to the suspension. Cell crude extracts were centrifuged at 4° C. and approximately 4000 g for 30 min. The supernatant was collected, and 300 μL of nickel beads were added; the mixture was incubated with gentle mixing at 4° C. for 2 h. The mixture was centrifuged at 4° C. and approximately 1000 g for 3 min, the supernatant was removed, and the beads were resuspended with 3 mL 1×HIS binding buffer. This step was performed twice. The beads were then resuspended and mixed gently in 500 μL 1×HIS Binding Buffer. The mixture was then transferred into a cold Eppendorf tube, centrifuged at 4° C. and approximately 1000 g, and the supernatant was removed. The beads were resuspended in 400 μL elution buffer (20 mM Tris-HCl, pH 7.5, 500 mM NaCl, 250 mM imidazole), mixed gently, centrifuged at 4° C. and approximately 1000 g for 3 min, and the supernatant was collected. This step was performed three times to collect three elution fractions. Glycerol was added in a 1:1 ratio to each elution tube and protein solutions were stored at −80° C. The fractions were analyzed by SDS-PAGE and Western Blot. The fraction comprising the UGT with the highest purity was used for the subsequent in vitro assay.
UGT85A1 (SEQ ID NO:9, SEQ ID NO:10), UGT76E1 (SEQ ID NO:11, SEQ ID NO:12), UGT73E1 (SEQ ID NO:13, SEQ ID NO:14), UGT73C3 (SEQ ID NO:15, SEQ ID NO:16), and UGT76E12 (SEQ ID NO:17, SEQ ID NO:18) were employed for in vitro glycosylation of nootkatol in the presence of the sugar donor, UDP-glucose. The reaction was carried out in a final volume of 50 μL buffer (100 mM Tris, pH 8.0, 5 mM MgCl2, 1 mM KCl), 5 mM nootkatol in DMSO, 15 mM UDP-glucose, and 5 μL purified enzyme solution. The reaction was incubated overnight at 30° C. The sample was analyzed by LC-MS on a BEH C18-column (100 mm×2.1 mm, 5 μm). Mobile phase A was 0.1% formic acid in water; mobile phase B was 0.1% formic acid in acetonitrile. B concentration gradient was 0-1 min, 1%; 1-5 min, 100%; 5-7 min, 100%; 7-7.1 min, 1%; 7.1-9 min, 1%. The injection volume was 5 μL. […]

For the molecule `C=C(C)[C@@H]1CCC2=CC(=O)C[C@@H](C)[C@]2(C)C1` [nootkatone, 4,4a,5,6,7,8-hexahydro-6-isopropenyl-4,4a-dimethyl-2(3H)-napthalenone], in the series on yeast, the “cellular toxicity in yeast” value is “cellular toxicity”.

In the case of `C=C(C)C1CCC2=CC(O)CC(C)C2(C)C1` (centres unmarked) [nootkatol, 2,3,4,4a,5,6,7,8-octahydro-6-isopropenyl-4,4a-dimethyl-2-naphtalenol], the “cellular toxicity in yeast” value with yeast is on record as “cellular toxicity”. The cell death in series [1] is listed as ~99%.

B1: UGT73E1: UDP-glycosyltransferase, Stevia rebaudiana, SEQ ID NO: 13, SEQ ID NO: 14 (protein, listed as Stevia rebaudiana)
chain: MSPKMVAPPTNLHFVLFPLMAQGHLVPMVDIARILAQRGATVTIITTPYHANRVRPVISRAIATNLKIQLLELQLRSTEAGLPEGCESFDQLPSFEYWKNISTAIDLLQQPAEDLLRELSPPPDCIISDFLFPWTTDVARRLNIPRLVFNGPGCFYLLCIHVAITSNILGENEPVSSNTERVVLPGLPDRIEVTKLQIVGSSRPANVDEMGSWLRAVEAEKASFGIVVNTFEELEPEYVEEYKTVKDKKMWCIGPVSLCNKTGPDLAERGNKAAITEHNCLKWLDERKLGSVLYVCLGSLARISAAQAIELGLGLESINRPFIWCVRNETDELKTWFLDGFEERVRDRGLIVHGWAPQVLILSHPTIGGFLTHCGWNSTIESITAGVPMITWPFFADQFLNEAFIVEVLKIGVRIGVERACLFGEEDKVGVLVKKEDVKKAVECLMDEDEDGDQRRKRVIELAKMAKIAMAEGGSSYENVSSLIRDVTETVRAPH
Regarding B1, the “Area-under-curve of the peak of glycosylated nootkatol (nootkatol+1 glucose) produced in vitro” value (“Area-under-curve” below) in series [2] is 1288384.

B2: UGT73C3: UDP-glycosyltransferase, Arabidopsis thaliana, SEQ ID NO: 15, SEQ ID NO: 16 (protein, listed as Arabidopsis thaliana)
chain: MATEKTHQFHPSLHFVLFPFMAQGHMIPMIDIARLLAQRGVTITIVTTPHNAARFKNVLNRAIESGLAINILHVKFPYQEFGLPEGKENIDSLDSTELMVPFFKAVNLLEDPVMKLMEEMKPRPSCLISDWCLPYTSIIAKNFNIPKIVFHGMGCFNLLCMHVLRRNLEILENVKSDEEYFLVPSFPDRVEFTKLQLPVKANASGDWKEIMDEMVKAEYTSYGVIVNTFQELEPPYVKDYKEAMDGKVWSIGPVSLCNKAGADKAERGSKAAIDQDECLQWLDSKEEGSVLYVCLGSICNLPLSQLKELGLGLEESRRSFIWVIRGSEKYKELFEWMLESGFEERIKERGLLIKGWAPQVLILSHPSVGGFLTHCGWNSTLEGITSGIPLITWPLFGDQFCNQKLVVQVLKAGVSAGVEEVMKWGEEDKIGVLVDKEGVKKAVEELMGDSDDAKERRRRVKELGELAHKAVEKGGSSHSNITLLLQDIMQLAQFKN
B2: the “Area-under-curve” value in series [2] is 1211635.

B3: UGT76E1: UDP-glycosyltransferase, Arabidopsis thaliana, SEQ ID NO: 11, SEQ ID NO: 12 (protein, listed as Arabidopsis thaliana)
chain: MEELGVKRRIVLVPVPAQGHVTPIMQLGKALYSKGFSITVVLTQYNRVSSSKDFSDFHFLTIPGSLTESDLKNLGPFKFLFKLNQICEASFKQCIGQLLQEQGNDIACVVYDEYMYFSQAAVKEFQLPSVLFSTTSATAFVCRSVLSRVNAESFLLDMKDPKVSDKEFPGLHPLRYKDLPTSAFGPLESILKVYSETVNIRTASAVIINSTSCLESSSLAWLQKQLQVPVYPIGPLHIAASAPSSLLEEDRSCLEWLNKQKIGSVIYISLGSLALMETKDMLEMAWGLRNSNQPFLWVIRPGSIPGSEWTESLPEEFSRLVSERGYIVKWAPQIEVLRHPAVGGFWSHCGWNSTLESIGEGVPMICRPFTGDQKVNARYLERVWRIGVQLEGELDKGTVERAVERLIMDEEGAEMRKRVINLKEKLQASVKSRGSSFSSLDNFVNSLKMMNFM
With B3, the “Area-under-curve” value in series [2] came out at 1566336.

B4: UGT76E12: UDP-glycosyltransferase, Arabidopsis thaliana, SEQ ID NO: 17, SEQ ID NO: 18 (protein, listed as Arabidopsis thaliana)
chain: MQVLGMEEKPARRSVVLVPFPAQGHISPMMQLAKTLHLKGFSITVVQTKFNYFSPSDDFTHDFQFVTIPESLPESDFKNLGPIQFLFKLNKECKVSFKDCLGQLVLQQSNEISCVIYDEFMYFAEAAAKECKLPNIIFSTTSATAFACRSVFDKLYANNVQAPLKETKGQQEELVPEFYPLRYKDFPVSRFASLESIMEVYRNTVDKRTASSVIINTASCLESSSLSFLQQQQLQIPVYPIGPLHMVASAPTSLLEENKSCIEWLNKQKVNSVIYISMGSIALMEINEIMEVASGLAASNQHFLWVIRPGSIPGSEWIESMPEEFSKMVLDRGYIVKWAPQKEVLSHPAVGGFWSHCGWNSTLESIGQGVPMICRPFSGDQKVNARYLECVWKIGIQVEGELDRGVVERAVKRLMVDEEGEEMRKRAFSLKEQLRASVKSGGSSHNSLEEFVHFIRTL
Regarding B4, the “Area-under-curve” value in series [2] is recorded as 820053.

B5: UGT85A1: UDP-glycosyltransferase, Arabidopsis thaliana, SEQ ID NO: 9, SEQ ID NO: 10 (protein, listed as Arabidopsis thaliana)
chain: MGSQIIHNSQKPHVVCVPYPAQGHINPMMRVAKLLHARGFYVTFVNTVYNHNRFLRSRGSNALDGLPSFRFESIADGLPETDMDATQDITALCESTMKNCLAPFRELLQRINAGDNVPPVSCIVSDGCMSFTLDVAEELGVPEVLFWTTSGCAFLAYLHFYLFIEKGLCPLKDESYLTKEYLEDTVIDFIPTMKNVKLKDIPSFIRTTNPDDVMISFALRETERAKRASAIILNTFDDLEHDVVHAMQSILPPVYSVGPLHLLANREIEEGSEIGMMSSNLWKEEMECLDWLDTKTQNSVIYINFGSITVLSVKQLVEFAWGLAGSGKEFLWVIRPDLVAGEEAMVPPDFLMETKDRSMLASWCPQEKVLSHPAIGGFLTHCGWNSILESLSCGVPMVCWPFFADQQMNCKFCCDEWDVGIEIGGDVKREEVEAVVRELMDGEKGKKMREKAVEWQRLAEKATEHKLGSSVMNFETVVSKFLLGQKSQD
As for B5, the “Area-under-curve” value in series [2] stood at 1632282.

Source of the values: US20180327723A1, “Production of Glycosylated Nootkatol in Recombinant Hosts” (Evolva SA, priority 2015, published 2018).
